# Data as given in patent publication US20170137490A1, “PEPTIDES, AND METHODS AND APPARATUS UTILISING SAME” (The University of Manchester, priority 2014, published 2017).
# Tested on: human anti-PLA2R autoantibodies
# Experiment: Western blotting of PLA2R fragments with human anti-PLA2R autoantibodies
# Assay type: binding
molecule,measurement,value
mouse PLA2R: recombinant mouse PLA2R (R&D) (protein) QDLTHIQEPSLEWRDKGIFIIQSESLKTCIQAGKSVLTLENCKQPNEHMLWKWVSDDHLFNVGGSGCLGLNISALEQPLKLYECDSTLISLRWHCDRKMIEGPLQYKVQVKSDNTVVARKQIHRWIAYTSSGGDICEHPSRDLYTLKGNAHGMPCVFPFQFKGHWHHDCIREGQKEHLLWCATTSRYEEDEKWGFCPDPTSMKVFCDATWQRNGSSRICYQFNLLSSLSWNQAHSSCLMQGGALLSIADEDEEDFIRKHLSKVVKEVWIGLNQLDEKAGWQWSDGTPLSYLNWSQEITPGPFVEHHCGTLEVVSAAWRSRDCESTLPYICKRDLNHTAQGILEKDSWKYHATHCDPDWTPFNRKCYKLKKDRKSWLGALHSCQSNDSVLMDVASLAEVEFLVSLLRDENASETWIGLSSNKIPVSFEWSSGSSVIFTNWYPLEPRILPNRRQLCVSAEESDGRWKVKDCKERLFYICKKAGQVPADEQSGCPAGWERHGRFCYKIDTVLRSFEEASSGYYCSPALLTITSRFEQAFITSLISSVAEKDSYFWIALQDQNNTGEYTWKTVGQREPVQYTYWNTRQPSNRGGCVVVRGGSSLGRWEVKDCSDFKAMSLCKTPVKIWEKTELEERWPFHPCYMDWESATGLASCFKVFHSEKVLMKRSWREAEAFCEEFGAHLASFAHIEEENFVNELLHSKFNWTQERQFWIGFNRRNPLNAGSWAWSDGSPVVSSFLDNAYFEEDAKNCAVYKANKTLLPSNCASKHEWICRIPRDVRPKFPDWYQYDAPWLFYQNAEYLFHTHPAEWATFEFVCGWLRSDFLTIYSAQEQEFIHSKIKGLTKYGVKWWIGLEEGGARDQIQWSNGSPVIFQNWDKGREERVDSQRKRCVFISSITGLWGTENCSVPLPSICKRVKIWVIEKEKPPTQPGTCPKGWLYFNYKCFLVTIPKDPRELKTWTGAQEFCVAKGGTLVSIKSELEQAFITMNLFGQTTNVWIGLQSTNHEKWVNGKPLVYSNWSPSDIINIPSYNTTEFQKHIPLCALMSSNPNFHFTGKWYFDDCGKEGYGFVCEKMQDTLEHHVNVSDTSAIPSTLEYGNRTYKIIRGNMTWYAAGKSCRMHRAELASIPDAFHQAFLTVLLSRLGHTHWIGLSTTDNGQTFDWSDGTKSPFTYWKDEESAFLGDCAFADTNGRWHSTACESFLQGAICHVVTETKAFEHPGLCSETSVPWIKFKGNCYSFSTVLDSRSFEDAHEFCKSEGSNLLAIRDAAENSFLLEELLAFGSSVQMVWLNAQFDNNNKTLRWFDGTPTEQSNWGLRKPDMDHLKPHPCVVLRIPEGIWHFTPCEDKKGFICKMEAGIPAVTAQPEKGLSHS,recognition by human anti-PLA2R autoantibodies,fail to react
